Measurements taken from the DeepSol protein solubility set.

Assay: soluble on expression in E. coli; label from the status in PepcDB or PDB records

Sequence | soluble on expression in E. coli
MSLLILIGWQIQVRQPSDYIMNKTEFYADLNRDFNALMAGETSFLATLANTSALLYERLTDINWAGFYLLEDDTLVLGPFQGKIACVRIPVGRGVCGTAVARNQVQRIEDVHVFDGHIACDAASNSEIVLPLVVKNQIIGVLDIDSTVFGRFTDEDEQGLRQLVAQLEKVLATTDYKKFFASVAGEGGSHHHHHH | soluble
MSLLPKELLDVRRAKGRIFPKFADERDYELAEKVIEIFKKGLGKKYGNLMKQARKLENAKNFKKVRGFIRVLENHCIEKSCAFDVDSELEPRKVRMLLFEHGFVTSKKERDRVLEYVARYFSTTPETVERAMYADREEELILTKFRPLTPDNLIKLYNLSLLQTTLFNALRLTFWASDRHKEIFRSIKRLGLMYELYEDSGRLMVEVTGAATLLKMTRKYGVSFAKLIPWILRAKNWFIRAEISDFDRLYIMEIDDRIRDLFPDVEERLSYDSTLEEEFARKMQMLGYEVEREPDVVKAGKYAFIPDFAVNLGDKKVYIEIAGFWTDEYLRKKAEKIKSSSIPLILIAREDFGDGGANVKDVILFSRKIPYGEVIKALKRYKPEKKVEGDVVELENFAEVPSEYVIAGKYAVRREIFEEIKREIEVSNPSTLEDIKAILKKYGLGESAIRAFGYRVRWIGLGEAVIERTDEGHHHHHH | not soluble
MSLMASAVAEENAERSKEGFIEGSEVNLLLRNFYFNRDFRKGQSSPAGGGYTEEWVQGFMANFSSGFTQGTLGVGIDAFAQLGVRLDSGGGRSGAGGSVDLLPYDDQGRPQDDYSRAGGAVKLRWYGTVLRVGDVFPETPVIQYGNSRLFPSSFRGFTLVNDSLAKGLTLQAGKLNSMTQPNSTSGSDDFYSFYTGRRIDSPWVAYAGGDYQATEHWSVSLYGSRQKDAWDQYYAGTSFNYPLDDKLSLLGGANYYKVKDQGRQVMGELDNDIWSVRGGFAYGPHQVLLSYQRNNGDDDFDYLRQTDSIYLDNSIQYSDFNSPKERSLMLRYDLDMAAFGVPGLSFMTRYGKGWDADYSNANSVYMRTDANGNPLTNQGRWERDVEVKYVVQGGAAKDLAFRVRQATVRSDSFESDLDEVRLIVEYPLQVLEGHHHHHH | not soluble
MSLMELQGKFLIAMPHLDDYFNRTVVFMCEHNEQGSMGLVINQPTDLSIAELYSKLNFMMKNDRTFGNEMVVAGGPMHTERGFILHKNTLNAFQHTYKVTKELSMTTSADVVETLGSTFAPEKYLVALGCSSWGAGQLEKEIRDNAWLVVSSNDQILFDMPYEDRYAAANQLLGIHPYNFALAQVGHSEGGSHHHHHH | soluble
MSLMLYFITFREARVLLKSRDLALINVDLMKTGKKIRVRVSKDYVEFPDGSRVKKEIIKRIAEDEGNVYFVRDGEVFKAAIAGEHFYKLVPTIPPTIEINGIRMHRTKGTDPLKDTIAKVNTVKPREGEVVLDTCMGLGYTAIESAKRGARVITIEKDPNVIELAKINPWSRELFESPKIKILQGDSFDLIKKFEDESFDVIIHDPPRFSLAGELYSEEFYMEMFRVLKPGGRLFHYVGNPGKRYRGLDLQKGVMERLRRVGFMKVRRVQEALGVFALKPSLEEGHHHHHH | not soluble
MSLMTSKTSLALLCDFYEFTMSQGYFKNNKKDQICYFDIFFRKIPDSGSFAIFAGLEDILDFVENLSFDAEDIEFLRKQGIFDTEFLDFLANFKFKGEIYAMREGEVIFPNEPLLCIKATTIEAQLLETFLLLSLNHQSLIATKTNRIVRAAKDSKILEFGSRRAQGSEAALKGARAAFIGGCIGSACTLAGKIYNIPINGTMAHSWVQMFENELEAFKAYVKIYPKNPVFLIDTYDCLNSGLKNAIKVFKEFGIQEGGVRIDSGNLLELSLKIRQELDQAGLQKCKIIVSNALDEWSIKKLKEQNAPIDIFGVGERLITASSDPIFSCVYKLAALEDQGIKPKIKISENNEKSTLPHFKKLFRVYDKNTQKILFDELYVFDENPNQDENLERKELLELVYKEKRLLKKSSLNTIQDYTKEQISKLDESFLDLDRFVKFEVKLSPKLQNITEDLLKTRFEGHHHHHH | soluble
MSLNDILNEFIDKYFPLSNEPLLPDFKDLNYPENLPTLVIDLNYVIAKLEYDRKTGWRVLKRPYADRFFKELSSFYEIVIWSDDNFPVAQEVISKWGIPAIGCLHRDQCSKKKKSYVKDLKRLGRNLDRVVIIDHDAKAFMLQPENGILIKEFHGDLNDKEMLCLIDLLKSFAISTHDISQFLKKHGGGDYNIGKRYLQQKEGHHHHHH | soluble
MSLNGATQGLLGWSSRGEIAAEIADAKQSQSVYVDKIANSSLAEIQADPTLMQFALSGGAAAFKVNCIQCHGSGAEGGQGYPNLNDDDWMWGGSVDDIYTTVKHGIRFADDADTRASEMPAFGDILKSDEIRAVAAYVVSLTGTPSNPALVEPGKQLFADNCASCHGEDAKGNREFGAPNLADAIWLKAHGEEGIVAQIRSPKHGVMPAWGERLGDTTVKQLAIFVHSLGGGEGHHHHHH | not soluble
MSLNGITKYVEKLTFFNIQSGKQVEFNRDEKVILSNVPFIQQLPELDRGCEVTSLAMMLQYAGITVDKMKLANEIKKVDFMNDGVRGNPNEGFVGNIYTFSESGYGVYHGPLFQLAKKYLPNKAVDLTGKSIEELYKSVKAGQPVVIITNATFAPLDEDEFTTWETNNGDVSITYNEHCVVLIGYDQESVYIRDPLKDSLDVKVPREKFEQAWVQMGSQAISYVKRSKEGHHHHHH | soluble
MSLNGPLKIGYYKIGAAYRDGKGYDVDMVRELARRLGCPIANETELPRLRALKMLETGQIDVSASTLATPDRLQYAWIYQYNHAKNMVLLNPAIQARTLATLLEDPALRWGAIRGYHHGPSQDKLLEELNARHKVVIANDEDDLYKMLGNGVVTAVFAQPFSYGRWLRELPNPNQIVVLDLYPETDMVASGLALSKARFSREAAEKWHQELLKMYQDGSLYDIMRRYLNESAARQMMQKPIEEGHHHHHH | soluble
MSLNHSVRKCGYLRKQKHGHKRFFVLRGPGAGGDEATAGGGSAPQPPRLEYYESEKKWRSKAGAPKRVIALDCCLNINKRADAKHKYLIALYTKDEYFAVAAENEQEQEGWYRALTDLVSEGRAAAGDAPPAAAPAASCSASLPGALGGSAGAAGAEDSYGLVAPATAAYREVWQVNLKPKGLGQSKNLTGVYRLCLSARTIGFVKLNCEQPSVTLQLMNIRRCGHSDSFFFIEVGRSAVTGPGELWMQADDSVVAQNIHETILEAMKALKELFEFRPREGHHHHHH | soluble
MSLNKEQLKSLVIKTIDENREKILKIGQGIYKNPEYGYKEFKTTEAVSNFFEQELNLSVEKNIAVTGCKADANSSKKGPHISILGELDGISCKEHKDANEIGASHTCGHNIQIAGMLGAAVGLVKSGVLEHLDGKVSFMATPAEEFIELEYREQLKKEGKITYFGGKQELIKRGYFDDIDISMMFHASDLGEDKALVGPESNGFVGKKVKFIGKESHAGSAPHDGINALNAAMLAINNVNALRETFKESERVRFHPIITKGGDIVNVVPADVHMESYVRARTINGMIDANERINKALMAGGMAVGADVEITEIPGYLPILRYKSLDNLFKNNLEDLGLKGKVIDGGDFTGSFDFGDVSHIMPTLHPMIGGVKGALHTRDFEIVDEDLAYIIPAKAMALTVVDLLFDNAKDAKDILDTFTPVMTKKEYLTFLEKHDKTEGHHHHHH | soluble
MSLNKKLYIGMVGILSLMMVGCNKSLAKVNDVEITKEQYKKTKAVLSATNNYINGQSLDELEKTLDKKGRNKLENVIISFMVDNELLYQEAKDKGLTPSKSEVDSKYQELEDKMNLNTSYKEKMDKAGVDKDYLKQEISRDLAIDKNKKAFEDRINISDNDMEAYYTSHKKDFNVEEVSASQILISTLDKNKKEVSKDKKEALKKKADNILTKIKNGESFESLAKKYSDDKATGKNGGQLGYFTKDDKNAEFTKEVFKLKKNEVSNVFETSYGYHIVKVTDKRERQKSFNECQSLIRESILNEKYIEHIKKLNEDAKIDREGHHHHHH | soluble
MSLNLDYTTYRIICSHPFGISRSTHTYYDIVYIYISDGEYIGRGEAAPSVRYDESTNQIITHLKSIDNIDNNLNLEEGAFWCKKNSNGISSLEAALSTAWLDLWTKKNNRRISTYFNSGKNMLYTSFTIAIGDLDLIPKKIEEAKSYNILKIKLGINEQHDKNIIKLIRKETDKIIRVDANEGWDLDTGKKMCKWLADHNVEFVEQPFKAQNLGDTAKLRDVSPLPLIADENSIKSSNIPDIAHAFDGINIKLMKCGSLFEAKKMIDLARKYDMKIMLGCMVESSIGITAMSNLSPQVDFADLDGNLLIDNDPYIGVKVVDGKLKLPSGDGLGLTLNQKYRKDFGNLKEGHHHHHH | soluble
MSLNLLALPLRSEVELADARTRARHIAELLGLGNQDQVRVATVVSELARNVLLYAGSGQVTFSVRDEAGRSTLLIEVRDQGPGLGHLDEVLGGQYRSKTGMGVGLTGTRRLMDEFDIQTAPGKGTVVRVGKHLPAVVGDAEQRRVAEVLGSSGPRDLLTALSVQNRDLLETLAALNEREERLQVLNQELQDTNRGVVALYAELEEKAERLREANGLKTTFLSYMSHELRTPLHSMLGLARILSGQLDGPLNPEQLKQVQLLQGAAGDLLEMVNGLLDLAKMEAGKTDVDVTTFEVRELFGTLRALFLPLLDNPAVNLIFEDAAGFPPLTTDQRKVEQVLRNFIANALKFTAAGEVRVTAQLLPSGDRVRFTVQDTGIGLSDEEQAQLFQDFSQVGRPGRPAGTGLGLSIARKFTELLGGRVGVQSAPGAGAEFSAELPVVYPGVGAAKRPRALLIDDSEADRYVLTTLLTRAGYEVDEVAYAEPGLEQARSGAYDAVVLDLNLPDRSGLDVLRALRENAGTRSLPVLVVIAAALDAAERAALETLGASVHLKEALYQDEQVLFASLPSGSVHYGEAEGHHHHHH | soluble
MSLNLLFTGASGFLGYNVLPLLKKKYSVETIGLTSQDDYIVNLAAEIPKLAGKYDVILHVAGKAHSLPKTEAEKRLFFDVNLQGTKNLCTALEQSGIPKSFIFISTVAVYGCDSGENITEEYPLNGTTPYALSKIKAEKYLEEWCAMHNVKLSILRPSLIAGPNPPGNLGAMIHGIKSGKYLSIAGGKAQKSVLMVQDIANLVPLLIEKGGIYNVCDSYQPSFRELEMVICKQLNKKLPLSIPYWFAKSMAVFGDCFGEKAPINSLKLRKITHSLTFSNEKAMRELGWKPMNVLKNFREGHHHHHH | soluble
MSLNLVSKLEETASEKPDSIACRFKDHMMTYQELNEYIQRFADGLQEAGMEKGDHLALLLGNSPDFIIAFFGALKAGIVVVPINPLYTPTEIGYMLTNGDVKAIVGVSQLLPLYESMHESLPKVELVILCQTGEAEPEAADPEVRMKMTTFAKILRPTSAAKQNQEPVPDDTAVILYTSGTTGKPKGAMLTHQNLYSNANDVAGYLGMDERDNVVCALPMFHVFCLTVCMNAPLMSGATVLIEPQFSPASVFKLVKQQQATIFAGVPTMYNYLFQHENGKKDDFSSIRLCISGGASMPVALLTAFEEKFGVTILEGYGLSEASPVTCFNPFDRGRKPGSIGTSILHVENKVVDPLGRELPAHQVGELIVKGPNVMKGYYKMPMETEHALKDGWLYTGDLARRDEDGYFYIVDRKKDMIIVGGYNVYPREVEEVLYSHPDVKEAVVIGVPDPQSGEAVKGYVVPKRSGVTEEDIMQHCEKHLAKYKRPAAITFLDDIPKNATGKMLRRALRDILPQGHHHHHH | soluble
